Like-named read-outs stand apart in the source and are kept apart here. Square brackets hold non-standard residues; d marks the D form. Ends that are not written are not given here. Peptide text beside a SMILES is read from it. pY = N[C@@H](Cc1ccc(OP(=O)(O)O)cc1)C(=O)O
Experiments:
Syk(6-370) = Syk(6-370) (Homo sapiens, UniProt P43405); conditions: Ottinger et al. 1998, cited from earlier work
Syk [1] = molecular target: T1, Syk (Homo sapiens, UniProt P43405); assay: Syk kinase activation in vitro; assay type: biochemical
[2] = molecular target: T2, binding of Syk(6-370) to the β3 tail (Homo sapiens, UniProt P43405); assay: pITAM peptide competition in direct binding assay; conditions: soluble pITAM peptide 40 μM, 8000-fold molar excess
T2 construct: made in house; host or cells: bacteria (pGEX vector, IPTG induction)
Description: To verify that the Syk-β3 interaction is pITAM-independent mechanism, the effect of 8000-fold molar excess of PITAM peptides on binding of Syk(6-370) to the β3 tail was examined. […] Similar data were obtained in a quantitative enzyme-linked immunosorbent assay. The FcεRIγ pITAM peptides were functional, as they activated Syk kinase (EC50 1-2 μM) in vitro (Shiue et al.(1995) J Biol Chem 270:10498-10502). Thus, Syk recognition of β3 involves a unique specificity, distinct from Syk's interaction with pITAMs.
(§1) Following incubation, beads were washed and bound protein was analyzed by immunoblotting.

[3] = molecular target: T3, integrin β3 cytoplasmic tail (Homo sapiens, UniProt P05106); assay: Affinity chromatography/direct binding of kinase fragments to integrin tail; conditions: recombinant fragments, direct binding assay
T3 construct: made in house
T3 sequence (P05106 742-788 limits assumed): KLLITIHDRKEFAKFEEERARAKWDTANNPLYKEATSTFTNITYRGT
Description: as §1
(§2) For direct binding assays, model peptides (1 mg) were dissolved in 1 ml buffer containing 20 mM Tris (pH 7.9), 500 mM NaCl, and 6 M urea. To this, 50 ul packed His-Bind® Resin (Novagen, Madison, Wis.) was added and the mixture was rotated for 1 hour at room temperature. Immobilized peptides were washed 5× in above buffer without urea, and resuspended in 500 μl buffer containing 20 mM PIPES pH 6.8, 50 mM NaCl, 3 mM MgCl2, 150 mM sucrose, 50 mM NaF, 40 mM Na4P2O7*10H2O (buffer A) supplemented with 0.1% TritonX-100 and 3 mM MgCl2. Purified GST-fusion proteins were added to 0.5 ml buffer A supplemented with 0.1% TritonX-100 and 3 mM MgCl2. Five μl of total packed resin loaded with various integrin cytoplasmic domain model proteins was added to the GST-fusion protein. The mixture was incubated for 40 minutes at room temperature with continuous rotation. The beads were then washed five times in buffer A with 0.1% TritonX-100 and 3 mM MgCl2. Bound proteins were eluted by boiling in reducing sample buffer, fractionated by SDS PAGE, and immuno-blotted.

Zap-70 [4] = molecular target: T4, Zap-70 (Homo sapiens, UniProt P43403); assay: Affinity chromatography/direct binding of integrin tail model proteins to Zap-70; conditions: recombinant fragment, direct binding
T4 construct: A cDNA encoding residues 1-337 of human Zap-70 was cloned into pGEX-2T; made in house; host or cells: bacteria (pGEX-2T, IPTG induction)
T4 sequence (P43403 1-337): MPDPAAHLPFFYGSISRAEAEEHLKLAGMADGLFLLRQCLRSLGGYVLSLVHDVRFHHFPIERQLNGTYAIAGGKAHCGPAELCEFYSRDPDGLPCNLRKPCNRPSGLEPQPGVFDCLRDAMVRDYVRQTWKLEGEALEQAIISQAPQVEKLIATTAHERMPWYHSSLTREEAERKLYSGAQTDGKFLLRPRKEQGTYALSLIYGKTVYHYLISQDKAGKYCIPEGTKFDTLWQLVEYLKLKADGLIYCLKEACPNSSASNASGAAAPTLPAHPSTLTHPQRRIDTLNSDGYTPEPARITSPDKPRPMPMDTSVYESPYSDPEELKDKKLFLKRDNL
Description: (§3) A cDNA encoding residues 1-337 of human Zap-70 was cloned into pGEX-2T (Amersham Pharmacia Biotech).
(§4) Model protein mimics of integrin cytoplasmic domains αIIb, β1A, and β3 were prepared in accordance with procedures described by Pfaff et al. (1998) J Biol Chem 273:6104-6109). The β2 integrin cytoplasmic domain model protein was developed by PCR amplification of β2 cDNA using 5′-[…] (SEQ ID NO:7) and 3′-[…] (SEQ ID NO:8) primers. This primer set introduced a 5′ HindIII restriction site into the N-terminal region of the β2 cytoplasmic domain, resulting in the mutation, A725L. The 3′ primer contained a BamHI restriction site immediately downstream of dual stop codons. The PCR product was cloned into pCR2.1 as described in the TA Cloning® system (Invitrogen, Carlsbad, Calif.). After sequencing, pCR2.1-β2cyt was digested with BamHI and HindIII, and subcloned into a modified bacterial expression plasmid pET15bm (lacking the HindIII restriction site). All model proteins were verified by sequence analysis, expressed, HPLC purified and verified by electrospray ionization mass spectroscopy as described by Pfaff et al. ((1998) J Biol Chem 273:6104-6109).
as §1
as §2, with “The beads were then washed five times in buffer A with 0.1% TritonX-100 and 3 mM MgCl2. Bound proteins were eluted by boiling in reducing sample buffer, fractionated by SDS PAGE, and immuno-blotted.” left out

Zap-70 [5] = assay: as above; design: species or system human; conditions: Zap-70 from cell lysates
Description: as §3, §4, §1
as §2, with “The beads were then washed five times in buffer A with 0.1% TritonX-100 and 3 mM MgCl2. Bound proteins were eluted by boiling in reducing sample buffer, fractionated by SDS PAGE, and immuno-blotted.” left out

Syk [6] = molecular target: T1, Syk; assay: Affinity chromatography/direct binding of integrin tail model proteins to Syk; design: made in house; host or cells: bacteria (pGEX vector, IPTG induction)
Description: as §4, §1, §2

[7] = molecular target: T5, Syk binding to the β3 tail model proteins (Homo sapiens, UniProt P43405); assay: β3 peptide competition in direct binding assay; conditions: peptide 1×10^−4 M, Syk 5×10^−9 M
T5 construct: made in house; host or cells: bacteria (pGEX vector, IPTG induction)
Description: Phosphorylation of the β3 integrin cytoplasmic domain occurs as a consequence of integrin engagement (Law et al. (1996) J Biol Chem 271:10811-10815). To determine if phosphorylation of the β3 cytoplasmic domain could affect Syk binding, competition assays were performed using tyrosine phosphorylated or non-phosphorylated peptides in the context of the last 23 amino acids of the β3 cytoplasmic domain. Peptides were used at a concentration 1×10^−4 M, and Syk was used at a concentration of 5×10^−9 M. The non-phosphorylated peptide competed for integrin β3 tail binding to Syk. In three experiments, there was a 52±3.4% decrease in Syk binding to the β3 tail model proteins in the presence of non-phosphorylated β3-23 peptide as compared to the phosphorylated peptide (β3-23P). […] Furthermore, phosphorylation of β3(Y747,759) reduces its capacity to compete for Syk binding to the unphosphorylated β3 tail.
as §2, with “The beads were then washed five times in buffer A with 0.1% TritonX-100 and 3 mM MgCl2. Bound proteins were eluted by boiling in reducing sample buffer, fractionated by SDS PAGE, and immuno-blotted.” left out
For peptide competition assays, peptides were pre-incubated with Syk(6-370) for one hour before direct binding assays were performed. Peptides were used at a concentration of 1×10^−4 M, and Syk(6-370) was used at a concentration of 2×10^−9 M. Bound Syk was detected as described above. […]

[8] = recombinant fragment, direct binding

## CC(C)C[C@H](NC(=O)CNC(=O)[C@@H](NC(=O)[C@H](Cc1ccc(OP(=O)(O)O)cc1)NC(=O)[C@@H](NC(=O)CNC(=O)[C@@H](N)CC(=O)O)C(C)C)[C@@H](C)O)C(=O)N[C@@H](CO)C(=O)N[C@H](C(=O)N[C@@H](CCCNC(=N)N)C(=O)N[C@@H](CC(N)=O)C(=O)N[C@@H](CCC(N)=O)C(=O)N[C@@H](CCC(=O)O)C(=O)N[C@H](C(=O)N[C@@H](Cc1ccc(OP(=O)(O)O)cc1)C(=O)N[C@@H](CCC(=O)O)C(=O)N[C@H](C(=O)N[C@@H](CC(C)C)C(=O)N[C@@H](CCCCN)C(=O)N[C@H](C(=O)N[C@@H](CS)C(=O)N[C@@H](CCCNC(=N)N)C(=O)O)[C@@H](C)O)[C@@H](C)O)[C@@H](C)O)[C@@H](C)O [FcεRIγ ITAM peptide, DGVY(PO3)TGLSTRNQETY(PO3)ETLKTCR (SEQ ID NO:1)] (H-DGV[pY]TGLSTRNQET[pY]ETLKTCR-OH)
Syk(6-370); read-out: affinity of Syk for the dually phosphorylated FcεRIγ-ITAM
  Kd: 2.6 nM
Syk(6-370); reported, read-out: Kd for the interaction between Syk(6-370) and the FcεRIγ pITAM peptide
  Kd: 2.6 nM
Syk [1]
  EC50: 1000 to 2000 nM

## NQLY(PO3)NELNLGRREEY(PO3)DVLV (SEQ ID NO:2) (NQL[pY]NELNLGRREE[pY]DVLV) [dually-phosphorylated TCRξ chain ITAM peptide]
[2]
  competition with the β3 integrin cytoplasmic tail for binding to Syk(6-370): failed to compete

## Syk(163-270): Syk fragment containing only the C-terminal SH2 domain
[3]
  binding to the β3 tail: failed to bind

## Syk(R195A): C-terminal SH2 domain mutant of Syk deficient in binding to pITAMs
[3]
  binding to the β3 tail: bound

## Zap-70(1-162): N-terminal SH2 domain of Zap-70 with its intact IA domain
[3]
  binding to the β3 tail: bound β3 to a similar extent as the tandem SH2 domains

## tandem SH2 domains of SHP-2: tandem SH2 domains of SHP-2
[3]
  binding to the β3 tail: did not bind

## αIIb tail: αIIb integrin cytoplasmic tail model protein (KVGFFKRNRPPLEEDDEEGE; not fully specified)
Zap-70 [4]
  binding of Zap-70 to integrin tail model protein: No binding was detected
Zap-70 [5]
  binding of Zap-70 to integrin tail model protein: no detectable binding
Syk [6]; Syk from cell lysates
  binding of Syk to integrin tail model protein: no detectable binding
Syk [6]; [8]
  binding of Syk to integrin tail model protein: No binding was detected

## β3(759X): β3 tail with deletion of the last 4 C-terminal residues (KLLITIHDRKEFAKFEEERARAKWDTANNPLYKEATSTFTNIT; not fully specified)
Syk [6]; [8]
  binding of Syk to integrin tail model protein: abolished

## β3-23 peptide: non-phosphorylated peptide of the last 23 amino acids of the β3 cytoplasmic domain (DTANNPLYKEATSTFTNITYRGT)
[7]
  competition for integrin β3 tail binding to Syk: competed
[7]; three experiments, compared to the phosphorylated peptide (β3-23P)
  decrease in Syk binding to the β3 tail model proteins: 52±3.4%

## β3-23P: tyrosine phosphorylated peptide of the last 23 amino acids of the β3 cytoplasmic domain (DTANNPLYKEATSTFTNITYRGT; also: tyrosine phosphorylated, site not given here) [reference compound]
[7]
  competition for integrin β3 tail binding to Syk: did not detectably compete

## β3: recombinant model protein mimic of dimerized integrin β3 cytoplasmic tail (KLLITIHDRKEFAKFEEERARAKWDTANNPLYKEATSTFTNITYRGT; also: dimerised via Fc or GST (left off))
Zap-70 [5]
  binding of Zap-70 to integrin tail model protein: bound
Syk [6]; Syk from cell lysates
  binding of Syk to integrin tail model protein: bound

## β3752X: β3 tail with removal of 11 C-terminal residues Thr752-Thr762 (KLLITIHDRKEFAKFEEERARAKWDTANNPLYKEAT; not fully specified)
Syk [6]; [8]
  binding of Syk to integrin tail model protein: abolished
